Results published in article PMC10957929.

Target: T1, GST-DRG9Nip (Oryza sativa ssp. japonica cv. Nipponbare) (UniProt Q69P58)
T1 sequence: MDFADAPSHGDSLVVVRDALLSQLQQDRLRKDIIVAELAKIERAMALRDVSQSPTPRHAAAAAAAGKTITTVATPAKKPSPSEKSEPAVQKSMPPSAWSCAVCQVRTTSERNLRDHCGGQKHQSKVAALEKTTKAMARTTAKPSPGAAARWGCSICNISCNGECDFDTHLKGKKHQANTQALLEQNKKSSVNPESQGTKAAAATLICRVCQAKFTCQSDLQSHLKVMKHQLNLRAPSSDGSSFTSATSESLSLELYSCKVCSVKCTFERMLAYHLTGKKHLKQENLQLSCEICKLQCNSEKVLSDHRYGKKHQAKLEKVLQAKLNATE
Experiment: EMSA
Settings: 20 mM Hepes pH 7.5, 20 mM KCl2 (so in the source), 1 mM MgCl2, 10 mM ZnCl2, 5 mM DTT, 10% glycerol, 0.1% NP-40, room temperature, 1 h; 6% native PAGE, 0.5x TBE

In the case of “GGGCUCAAAUUAAUUAGCCAGUGAAAAAUCAAAUUACAGAGUUGCUUAAUUUUUUUACUAGUAGAACGCAACAGUAAAAAGAAUUAACAGCAGUGAAUUAUUAGUUAAUUAGCUAGGGAGUUGAAAUAGUUUAGCGGUCAUGCACUACUGAUUUUUAAUUAGUGCAGACAACGACCGCGUGUGUGUAUAUGCAUGUAUACCUUUUACUGUAUCUUCAGAUUGUGUAUAUAUAUCAUAUAUGUACAGGAAAAGAUUUAUAUAUCAUACAUAUUUUGUUGU [OsNCED4 3'-UTR RNA]”, the binding is reported as “binds”.
